The target in the test is GST-tagged βI spectrin N-terminal fragment, residues 1 to 301 (UniProt P11277). Nature of the test: pull-down.
Chain of UniProt P11277 (P11277 1-301): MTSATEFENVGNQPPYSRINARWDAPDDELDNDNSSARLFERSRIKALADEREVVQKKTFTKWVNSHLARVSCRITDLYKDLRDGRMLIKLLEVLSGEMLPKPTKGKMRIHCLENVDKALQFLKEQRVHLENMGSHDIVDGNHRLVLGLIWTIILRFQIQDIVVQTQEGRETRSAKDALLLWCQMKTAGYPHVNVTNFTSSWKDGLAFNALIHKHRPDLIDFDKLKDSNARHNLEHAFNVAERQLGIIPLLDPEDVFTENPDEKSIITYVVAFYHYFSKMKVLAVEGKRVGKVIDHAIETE

As for “His-tagged 4.1R-S312A, phosphorylated in vitro by the catalytic subunit of PKC (natural protein)”, the reduction of binding against the unphosphorylated protein is 30%.

In turn, “His-tagged 4.1R-S331A, phosphorylated in vitro by the catalytic subunit of PKC (natural protein)” registered a reduction of binding against the unphosphorylated protein of 30%.

Values taken from PMC4409870.
